Experimental findings from PMC5423654 are described below.

Substrate in the series: S
The series can be described thus: UV-vis quinone reduction, steady-state kinetics. It counts as biochemical, Staphylococcus aureus. The following applies: pH 8.0; 25.0 °C.

B1: S. aureus SQR (sulfide:quinone oxidoreductase) (Staphylococcus aureus subsp. aureus NCTC 8325) (protein)
chain: MNKHYQIVIIGGGTAGVTVASRLLRKNQNLKEKIAIIDPADHHYYQPLWTLVGAGVSSLKSSRKDMESVIPEGANWIKQAVSSFQPENNSVILGDNTVVYYDFLVVAPGLQINWSSIKGLKENIGKNGVCSNYSPDYVNETWNQISNFKQGNAIFTHPNTPIKCGGAPMKIMYLAEDYFRKHKIRSNANVIYATPKDALFDVGKYNKELERIVEERNITVNYNYNLVEIDGDKKVATFEHIKAYDRKTISYDMLHVTPPMGPLDVVKESTLSDSEGWVDVNPTTLQHKSYSNVFALGDASNVPTSKTGAAIRKQAPIVANNLLQVMNNQMLTHHYDGYTSCPIVTGYNRLILAEFDYNKNTKETMPFNQAKERRSMYIFKKDLLPKMYWYGMLKGLI
Take B1: the Km came out at 22 ± 7 µM, the maximal velocity (Vmax) is 0.41 µmol/min/mg and the catalytic efficiency (kcat/Km) was found to be 14100 ± 4600 M⁻¹ s⁻¹.
